B1: Ab21: proTGFβ1 antibody; VH SEQ ID NO: 129, VL SEQ ID NO: 15 (antibody, V domains shown)
VH: EVQLVESGGGLVQPGGSLRLSCAASGFTFSSFSMDWVRQAPGKGLEWVSYISPDASTIYYADSVKGRFTISRDNAKNSLYLQMNSLRAEDTAVYYCARGVLDYGDMLDPWGQGTLVTVSS
VL: DIQMTQSPSSLSASVGDRVTITCQASQDITNYLNWYQQKPGKAPKLLIYDASNLETGVPSRFSGSGSGTDFTFTISSLQPEDIATYYCQQADNHPPWTFGGGTKVEIK
B2: Ab22: proTGFβ1 antibody; VH SEQ ID NO: 130, VL SEQ ID NO: 15 (antibody, V domains shown)
VH: EVQLVESGGGLVQPGGSLRLSCAASGFTFGSFSMNWVRQAPGKGLEWVSYIHSDASTIYYADSVKGRFTISRDNAKNSLYLQMNSLRAEDTAVYYCARGVLDYGDMLDPWGQGTLVTVSS
VL: DIQMTQSPSSLSASVGDRVTITCQASQDITNYLNWYQQKPGKAPKLLIYDASNLETGVPSRFSGSGSGTDFTFTISSLQPEDIATYYCQQADNHPPWTFGGGTKVEIK
B3: Ab23: proTGFβ1 antibody; VH SEQ ID NO: 131, VL SEQ ID NO: 15 (antibody, V domains shown)
VH: EVQLVESGGGLVQPGGSLRLSCAASGFTFSSFSMNWVRQAPGKGLEWVSYISPSADTIYYADSVKGRFTISRDNAKNTLYLQMNSLRAEDTAVYYCARGVLDYGDMLDPWGQGTLVTVSS
VL: DIQMTQSPSSLSASVGDRVTITCQASQDITNYLNWYQQKPGKAPKLLIYDASNLETGVPSRFSGSGSGTDFTFTISSLQPEDIATYYCQQADNHPPWTFGGGTKVEIK
B4: Ab24: proTGFβ1 antibody; VH SEQ ID NO: 132, VL SEQ ID NO: 15 (antibody, V domains shown)
VH: EVQLVESGGGLVQPGRSLRLSCAASGFTFSSFAMYWVRQAPGKGLEWVSYISPDASTIYYADSVKGRFTISRDNAKNSLYLQMNSLRAEDTAVYYCARGVLDYGDMLDPWGQGTLVTVSS
VL: DIQMTQSPSSLSASVGDRVTITCQASQDITNYLNWYQQKPGKAPKLLIYDASNLETGVPSRFSGSGSGTDFTFTISSLQPEDIATYYCQQADNHPPWTFGGGTKVEIK
B5: Ab25: proTGFβ1 antibody; VH SEQ ID NO: 133, VL SEQ ID NO: 15 (antibody, V domains shown)
VH: EVQLVESGGGLVQPGGSLRLSCAASGFTFGSFSMDWVRQAPGKGLEWVSYISPDASTIYYADSVKGRFTISRDNAKNSLYLQMNSLRAEDTAVYYCARGVLDYGDMLDPWGQGTLVTVSS
VL: DIQMTQSPSSLSASVGDRVTITCQASQDITNYLNWYQQKPGKAPKLLIYDASNLETGVPSRFSGSGSGTDFTFTISSLQPEDIATYYCQQADNHPPWTFGGGTKVEIK
B6: Ab26: proTGFβ1 antibody; VH SEQ ID NO: 134, VL SEQ ID NO: 15 (antibody, V domains shown)
VH: EVQLVESGGGLVQPGGSLRLSCAASGFTFSSFSMDWVRQAPGKGLEWVSYISPDASTIYYADSVKGRFTISRDNAKNTLYLQMNSLRAEDTAVYYCARGVLDYGDMLDPWGQGTLVTVSS
VL: DIQMTQSPSSLSASVGDRVTITCQASQDITNYLNWYQQKPGKAPKLLIYDASNLETGVPSRFSGSGSGTDFTFTISSLQPEDIATYYCQQADNHPPWTFGGGTKVEIK
B7: Ab27: proTGFβ1 antibody; VH SEQ ID NO: 135, VL SEQ ID NO: 15 (antibody, V domains shown)
VH: EVQLVESGGGLVQPGGSLRLSCAASGFTFSFYAMNWVRQAPGKGLEWVSYISPDASTIYYADSVKGRFTISRDNAKNSLYLQMNSLRAEDTAVYYCARGVLDYGDMLDPWGQGTLVTVSS
VL: DIQMTQSPSSLSASVGDRVTITCQASQDITNYLNWYQQKPGKAPKLLIYDASNLETGVPSRFSGSGSGTDFTFTISSLQPEDIATYYCQQADNHPPWTFGGGTKVEIK
B8: Ab28: proTGFβ1 antibody; VH SEQ ID NO: 136, VL SEQ ID NO: 15 (antibody, V domains shown)
VH: EVQLVESGGGLVQPGGSLRLSCAASGFTFSSFSMDWVRQAPGKGLEWVSYISPDASTIYYADSVKGRFTISRDNAKNSLYLQMNSLRAEDTAVYYCVRGVLDYGDMLDPWGQGTLVTVSS
VL: DIQMTQSPSSLSASVGDRVTITCQASQDITNYLNWYQQKPGKAPKLLIYDASNLETGVPSRFSGSGSGTDFTFTISSLQPEDIATYYCQQADNHPPWTFGGGTKVEIK
B9: Ab29: proTGFβ1 antibody; VH SEQ ID NO: 137, VL SEQ ID NO: 15 (antibody, V domains shown)
VH: EVQLVESGGGLVQPGRSLRLSCAASGFTFSSFAMNWVRQAPGKGLEWVSYISPDASTIYYAGSVKGRFTISRDNAKNSLYLQMNSLRAEDTAVYYCVRAVLDYGDMLDPWGQGTLVTVSS
VL: DIQMTQSPSSLSASVGDRVTITCQASQDITNYLNWYQQKPGKAPKLLIYDASNLETGVPSRFSGSGSGTDFTFTISSLQPEDIATYYCQQADNHPPWTFGGGTKVEIK
B10: Ab30: proTGFβ1 antibody; VH SEQ ID NO: 138, VL SEQ ID NO: 15 (antibody, V domains shown)
VH: EVQLVESGGGLVQPGGSLRLSCAASGFTFSSFSMDWVRQAPGKGLEWVSYISPDASTIYYADSVKGRFTISRDNAKNSLYLQMNSLRAEDTAVYYCARGTLDYGDMLDPWGQGTLVTVSS
VL: DIQMTQSPSSLSASVGDRVTITCQASQDITNYLNWYQQKPGKAPKLLIYDASNLETGVPSRFSGSGSGTDFTFTISSLQPEDIATYYCQQADNHPPWTFGGGTKVEIK
B11: Ab31: proTGFβ1 antibody; VH SEQ ID NO: 139, VL SEQ ID NO: 15 (antibody, V domains shown)
VH: EVQLVESGGGLVQPGGSLRLSCAASGFTFSSFSMDWVRQAPGKGLEWVSYISPDASTIYYADSVKGRFTISRDNAKNTLYLQMNSLRAEDTAVYYCARAVLDYGDMLDPWGQGTLVTVSS
VL: DIQMTQSPSSLSASVGDRVTITCQASQDITNYLNWYQQKPGKAPKLLIYDASNLETGVPSRFSGSGSGTDFTFTISSLQPEDIATYYCQQADNHPPWTFGGGTKVEIK

Experiments:
[1] = target: Matrix-associated proTGFb1 (hLTBP1, hLTBP3); assay: BLI (OCTET), average over matrix-associated complexes; format: binding, human; conditions: average KD of (B) and (C), read-out: (D) ECM AVRG
From the text: (§1) Column (A) of the table lists monoclonal antibodies with discrete amino acid sequences. […] Columns (B), (D), (E) and (F) provide affinities of each of the listed antibodies, measured in KD. […] Average KD values of (B) and (C) are shown in the corresponding column (D), which collectively represents affinities of the antibodies to ECM- or matrix-associated proTGFβ1 complexes. Similarly, Average KD values of (E) and (F) are shown in the corresponding column (G), which collectively represents affinities of the antibodies to cell-surface or cell-associated proTGFβ1 complexes. Finally, relative ratios between the average KD values from columns (D) and (G) are expressed as “fold bias” in column (H). Thus, the greater the number of column (H) is, the greater bias exists for the particular antibody, when comparing binding preferences of the antibody for matrix-associated complexes and cell-surface complexes. This is one way of quantitatively representing and comparing inherent bias of antibodies to their target complexes. Such analyses may be useful in guiding the selection process for a candidate antibody for particular therapeutic use.
(§2) The concept of “uniformity” or lack of bias is further illustrated in Table 8. Average KD values between the two matrix-associated and cell-associated complexes are calculated, respectively (see columns (D) and (G)). These average KD values can then be used to ask whether bias in binding activities exists between complexes associated with matrix vs. complexes associated with cell surface (e.g., immune cells). Bias may be expressed as “fold-difference”in the average KD values, as illustrated in Table 8.

[2] = test system: LTBP1-proTGFβ1, LTBP3-proTGFβ1, GARP-proTGFβ1 and LRRC33-proTGFβ1 complexes; assay: BLI (OCTET), binding profile and bias across the four complexes; design: species or system human; conditions: ratio of average KD cell-associated / matrix-associated
From the text: as §1, §2

[3] = test system: Cell-associated proTGFb1 (hGARP, hLRRC33); assay: BLI (OCTET), average over cell-associated complexes; format: binding, human; conditions: average KD of (E) and (F), read-out: (G) Cell AVRG
From the text: as §1, §2

[4] = test system: Cell-associated proTGFβ1 (hGARP, hLRRC33); assay: MSD-SET, average over cell-associated complexes; format: binding, human; conditions: average of (E) and (F), read-out: (G) Cell AVRG
From the text: as §1
(§3) Solution equilibrium titration (“SET”) is an assay whereby binding between two molecules (such as an antigen and an antibody that binds the antigen) can be measured at equilibrium in a solution. For example, Meso-Scale Discovery (“MSD”)-based SET, or MSD-SET, is a useful mode of determining dissociation constants for particularly high-affinity protein-protein interactions at equilibrium (see, for example: Ducata et al. (2015) J Biomolecular Screening 20(10): 1256-1267). The SET-based assays are particularly useful for determining KD values of antibodies with sub-nanomolar (e.g., picomolar) affinities.

[5] = target: Matrix-associated proTGFβ1 (hLTBP1, hLTBP3); assay: MSD-SET, average over matrix-associated complexes; format: binding, human; conditions: average of (B) and (C), read-out: (D) ECM AVRG
From the text: as §1, §3

[6] = test system: hLTBP1-proTGFβ1, hLTBP3-proTGFβ1, hGARP-proTGFβ1 and hLRRC33-proTGFβ1; assay: MSD-SET, binding profile and bias across the four human LLCs; conditions: ratio of average KD cell-associated / matrix-associated
From the text: Solution Equilibrium Titration (SET): The SET is an assay whereby binding between two molecules (such as an antigen and an antibody that binds the antigen) can be measured at equilibrium in a solution. For example, Meso-Scale Discovery (“MSD”)-based SET, or MSD-SET, is a useful mode of determining dissociation constants for particularly high-affinity protein-protein interactions at equilibrium, such as picomolar-affinity antibodies binding to their antigens (see, for example: Ducata et al. (2015) J Biomolecular Screening 20(10): 1256-1267). The SET-based assays are particularly useful for determining KD values of antibodies with sub-nanomolar (e.g., picomolar) affinities.
as §3
For solution equilibrium titration-based binding assays, protein complexes that comprise one of the presenting molecules such as those shown above may be employed as antigen (presenting molecule-TGFβ1 complex, or an LLC). Test antibodies are allowed to form antigen-antibody complex in solution. Antigen-antibody reaction mixtures are incubated to allow an equilibrium to be reached; the amount of the antigen-antibody complex present in the assay reactions can be measured by suitable means well known in the art. As compared to BLI-based assays, SET-based assays are less affected by on/off rates of the antigen-antibody complex, allowing sensitive detection of very high affinity interactions.

Molecule | Kd [1] [nM] | (H) G/D (fold bias) [2] [fold] | Kd [3] [nM] | Kd [4] [nM] | Kd [5] [nM] | (H) G/D (fold bias) [6] [fold]
B1 | 0.246 | 2.613 | 0.644 |  |  | 
B2 | 0.324 | 2.147 | 0.695 | 0.114 | 0.042 | 2.71
B3 | 0.443 | 2.028 | 0.897 |  |  | 
B4 | 0.222 | 2.421 | 0.537 | 0.1 | 0.023 | 4.35
B5 | 0.184 | 2.431 | 0.449 |  |  | 
B6 | 0.197 | 2.500 | 0.492 | 0.072 | 0.026 | 2.77
B7 | 0.208 | 1.738 | 0.361 |  |  | 
B8 | 0.328 | 1.838 | 0.603 |  |  | 
B9 | 0.155 | 1.965 | 0.304 | 0.024 |  | 2.00
B10 | 0.296 | 2.307 | 0.684 | 0.081 | 0.029 | 2.80
B11 | 0.208 | 2.376 | 0.495 | 0.058 | 0.017 | 3.41

Reference: patent US12252531B2, “Methods of screening for high-affinity, isoform-selective TGFβ1 inhibitors” (Scholar Rock, Inc., priority 2018, dated 2025)
